Test results published in paper PMC8873214, “RIOX1-demethylated cGAS regulates ionizing radiation-elicited DNA repair” (Bone Research, 2022).

Target: T1, purified K491me-bearing Flag-cGAS (mouse, UniProt Q8C6L5 1-507, monomethyl-lysine at K491)
T1 construct: cyclic GMP-AMP synthase (cGAS), mouse (K491 is the mouse numbering); also called K491me-bearing cGAS; purified Flag-cGAS protein methylated by His-SET7; source: bacterially purified, then methylated in vitro with purified His-SET7
Assay: pull-down; purified Flag-cGAS methylated in vitro by purified His-SET7, incubated with purified SGF29, then with biotin-PAR; streptavidin pulldown, immunoblot; binding of SGF29 read from the loss of PAR-bound cGAS
Conditions: both partners purified

T1 sequence (Q8C6L5 whole entry): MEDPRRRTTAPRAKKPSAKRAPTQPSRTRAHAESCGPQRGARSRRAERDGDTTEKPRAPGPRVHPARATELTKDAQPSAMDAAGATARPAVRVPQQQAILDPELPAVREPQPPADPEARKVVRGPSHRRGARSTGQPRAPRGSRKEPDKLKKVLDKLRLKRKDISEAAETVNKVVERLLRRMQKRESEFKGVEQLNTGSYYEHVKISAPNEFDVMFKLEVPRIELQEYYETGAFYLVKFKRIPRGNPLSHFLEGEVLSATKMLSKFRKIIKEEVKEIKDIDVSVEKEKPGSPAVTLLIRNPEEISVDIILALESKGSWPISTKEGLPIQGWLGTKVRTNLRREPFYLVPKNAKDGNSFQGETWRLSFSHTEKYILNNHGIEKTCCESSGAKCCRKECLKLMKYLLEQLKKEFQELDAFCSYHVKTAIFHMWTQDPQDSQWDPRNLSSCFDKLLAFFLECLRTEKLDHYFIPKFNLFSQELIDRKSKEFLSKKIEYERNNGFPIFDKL

B1: purified His-SGF29 protein (natural protein, mouse, UniProt Q9DA08 1-293, looked up)
chain: MALVSADSRIAELLTELHQLIKQTQEERSRSEHNLVNIQKTHERMQTENKISPYYRTKLRGLYTTAKTDAEAECNILRKALDKIAEIKSLLEERRIAAKIAGLYNDSEPPRKTMRRGVLMTLLQQSAMTLPLWIGKPGDKPPPLCGAIPASGDYVAKPGDKVAARVKAVEGDEQWILAEVVSYSHATNKYEVDDIDEEGKERHTLSRRRIIPLPQWKANPETDPEALFQKEQLVLALYPQTTCFYRALIHTPPQRPQDDYSVLFEDTSYADGYSPPLNVAQRYVVACKEPKKK
notes: SAGA complex-associated factor 29 (SGF29); mouse and human SGF29 were cloned; also called purified WT SGF29 protein; source: E. coli BL21(DE3), purified
binding result: binds
